Kd data for one molecule are collected here from publication PMC3458955 (2012).

This assay addresses CXCL12α (Homo sapiens, UniProt P48061). As to the kind of experiment: total internal reflection ellipsometry (TIRE) on Ishikawa cell membranes; given as Ka.

B1: CXCR4 (protein)
chain: MEGISIYTSDNYTEEMGSGDYDSMKEPCFREENANFNKIFLPTIYSIIFLTGIVGNGLVILVMGYQKKLRSMTDKYRLHLSVADLLFVITLPFWAVDAVANWYFGNFLCKAVHVIYTVNLYSSVLILAFISLDRYLAIVHATNSQRPRKLLAEKVVYVGVWIPALLLTIPDFIFANVSEADDRYICDRFYPNDLWVVVFQFQHIMVGLILPGIVILSCYCIIISKLSHSKGHQKRKALKTTVILILAFFACWLPYYIGISIDSFILLEIIKQGCEFENTVHKWISITEALAFFHCCLNPILYAFLGAKFKTSAQHALTSVSRGSSLKILSKGKRGGHSSVSTESESSSFHSS
As to B1, the Kd (as a rule, the free concentration of one partner at which half of the binding sites on the other are occupied at equilibrium, for simple one-to-one binding) is 714 pM.
